According to the domain aggregation screens of Martell et al. (2025):

Assay: soluble fraction after stress (log2 fold change); higher = more stays soluble; pooled small domains, quantitative proteomics
Conditions: stress: pH 4
In short: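 With high-throughput quantitative proteomics, pooled custom libraries of small protein domains were measured after pH 4 stress. Each domain's soluble amount after the stress gives a fold change taken as aggregation propensity. Higher log2 values mean more of the domain stayed soluble.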

Sequence	soluble fraction (log2)
HMTGAEGKLARYLLTVPSGEPLRLSATDLAKRLGISRASLYRAFQALEDARLIRREGKSMYVLDPAGLEGV	≥ 0.43
HMQGIPVTVTAERANLRSGPGTSFDKLGQVVQGDVLTLLEVQNDWYKVKTAEGKTAFVAAYLVNSP	0.0179
HMADTSLDHLGVLVRHASDVDAWAEFFENRGVTLASQPRTHRDGARSFYVDDPDGNRVQVIYHPPI	-0.81
HMTVTMADISQAYNEKRYLTTISLSNTYLTFAKPTTELLSIRYRTYFIIGKYAESLTEIAKL	0.22
HMDSLNWVEKIINTLPEQQRLIIQMRDIEQYEFAEIAKILEMNETAIRVALSRARKTIREFMIKTH	≥ 0.43
HMGVTDLFAVLGFPRSPWLDAEELKQRHHALMADEASANSSPTILNEARRTLQNPALRIRHFLALEFPDH	-0.82
HMRLSVRQRMSDVLGALKTQAFVEFTQLFRPQEGRMGVTVTFSAILELLREGLIEIVQSEPFAPIHVRAGA	0.22
HMASKTGTITATSLNVRSGAATTYSILGTLSNGKTVTIYEESNGWYKINYNGGYGWVSKTYVSTG	-0.105
HMAVLFFVKRGERILGPTRLADLFQHAASGRLRANDLVGESPKGPWLPARQLDELEDAWASSRDATEAAAA	-0.0753
HMSDFDPTLILDLIKGSGEALTKREIARALGIKGGDKRIELKSHLKSMEAEGVIVKQAGGAYSVP	-0.00302
HMFEARNTTFSEDGKTITETYGVKRIETEFVSDSTIVQKLYDNDVLTKTKTITFSADGLSIKEDV	-1.33
HMSEPIYTQLKEILTQKIVNGEFPPGARLPSEYELTELYHISRSTVRLALKELEASGMIVRRRGKGTFVSS	-0.0496
HMHAPIAELKKVFKEEFADQEVTVRQLAGSVLLSGNVKTAELRENLESVAKQFFPRVINNLKLI	0.0685
HMRRSKQERQQAIKTLISNEQIQRQEDLVRKLNEAGWEVTQATISRDITEMQLVKVPLPTGGFAYAVM	-0.31
HMPILRDEVYLSIKEAILTGELAPGERISIGRLLPQIGFSPTPIREALLKLEQEGFVSRLQRGGFIVSR	-0.471
HMKQISNTDELEAMIQKIIEDNSQQVEKFRSGNEKLFGWFVGQVMKNTQGAANPKVVNEILKKSLK	0.181

Sequence	soluble fraction (log2)
HMTYQHQSIIHRRTRGAILTAAKELLAESGISGTNMIEIADRAQVSRASLYNHFRDKHEVFLALVES	-0.407
HMIGVNMEKSTVEKFANELNLPIDLLLKQLESAGIKKTSGAEELLEADKSALLNYLQIEHGA	-0.678
HMVLVEEYDTKDSASTFKIGYYARYNTKYGTPSKVGSYADNQRSGIWTFYTDSLKTYFKYNYSTGLIL	-0.572
HMAPFVIQQGQDVRLISKGPGFAVSNDGKALTNAAEGQLARARTANGQTVSGIARQGGIIEIA	-0.068
HMDIFFEKIFNILIGYNQNQENLISEKSILNFHLSHKSNSNFEYIPDEKTPKYIWKYLSNYNLLE	-0.477
HMNKFKVNERVRVIATGEIGIVKGREILPVEGSKRVNIEYLVKVGNGFSNWKAFSKKELEPVR	≥ 0.43
HMSFNISPTKKLILELIMNGTAAVEAIAVKAGISKGMAYNHLRELRSMGYITDEGGYKITDSGRLAV	-0.399
HMDIMTVGERVKKLAEKQGISLRELAKKAELSYNTVYSITRRGSERVAPDTISRLANALGVNVNELT	≥ 0.43
HMHDITPAVAETFKQLRAERGLSLSQAAQLTGVSKAMLGQIERGQSSPTVSTLWKIATGFNVAFSVFL	-0.309
HMEFPLSPHQYSVLRLMAQGLSNKQIAERLFLSENTVKGYVQEVLRRLGARNRLEAVMIANRRGWL	-0.606
HMLSSREEKILNYLNEHQIITRKKAQELLETSQSTAGRVLKIMVDNGLIVQYGGSRSIWYELIK	-0.269
HMGDEPGAGYKWREDVLLRVMSEHGIDESARDDFVRHAVKFDDDDNLYLKKAEIIAAAEAWESSS	-2.05
HMDDPISSMVNRIRLAFGLSVTDLAAVLGVERPTIYSWLKDGSTPAPARLTRVRQVLSLADTW	≥ 0.43
HMRILGIDPGYAITGYSIIDYVGNKFKLIDSGAVLTKAGVSFPLRLTKIYDDLSMIIDEYKPDA	-0.42
HMHSFGLHVRNLRKKSNLTLSQLSNASGLSLSAISKIENNQISPSFINLIRLAEGLKMHIADLVTVK	-0.254
